Data taken from the supplement of paper PMC10567573.

B1: ZNF511 (parent)
chain: AAPFRFVARPVRFPREHQFFEDGD
B2: LRRC45 (parent)
chain: FQTRQEMTSMSAELKMRAIQAEER

Variants of: B1
Test: protein stability index of a GFP-peptide fusion (GPS, HEK-293T) (PSI 1-6); higher = more stable
Conditions: c terminus: a fixed tail appended
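Note: lentivirally expressed fusions sorted by FACS into six bins by GFP to DsRed ratio, PSI derived from sequencing read proportions per bin multiplied by bin number.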

Protein stability index of substitutions, site by site:
R15: F 2.08 | S 2.48 | N 1.62 | L 3.44 | V 1.86 | I 1.98 | G 1.74 | Y 1.71 | D 1.72 | T 2.57 | H 1.84 | K 2.2 | E 2.06 | Q 2.51 | P 2.85 | C 2.03 | M 1.89 | A 1.94 | W 1.65
Q18: M 2.86 | F 1.69 | H 1.7 | G 1.87 | E 1.96 | K 2.46 | A 2.77 | T 1.69 | Y 1.74 | I 2.26 | C 1.64 | N 2.33 | R 2.27 | D 1.8 | S 2.46 | L 2.18 | W 2.44 | V 1.9 | P 2.05
R12: L 2.13 | H 2.18 | E 1.97 | Y 1.74 | K 2.29 | C 1.62 | V 2.23 | A 1.48 | N 2.37 | T 2.62 | G 2.1 | S 3.73 | M 2.03 | I 2.97 | W 1.9 | D 1.85 | P 2.22 | F 1.54 | Q 2.44
H17: L 2.15 | K 2.2 | M 2.37 | Y 2.11 | E 2.71 | P 1.92 | G 2.29 | C 2.66 | F 1.73 | V 1.94 | A 2.66 | W 1.72 | I 2.59 | R 2.29 | N 2.71 | S 2.2 | Q 2.45 | T 2.35 | D 2.05
P10: H 2.14 | Y 2.59 | A 1.96 | N 1.88 | S 1.5 | G 1.87 | F 2.44 | D 2.07 | L 1.75 | Q 2.08 | I 4.18 | K 2.77 | T 1.29 | C 2.36 | V 2.06 | R 1.8 | E 1.81
E21: Y 1.92 | C 1.91 | Q 2 | T 1.64 | V 2.07 | A 1.96 | D 2 | N 2.29 | L 1.92 | M 1.76 | R 1.92 | H 2.5 | F 1.65 | G 3.51 | K 2.19 | I 1.97 | S 2.24 | P 2.45 | W 1.69
F13: D 2.1 | E 2.36 | N 1.95 | V 3.13 | K 2.17 | Q 2.1 | I 2.48 | M 2.72 | C 1.8 | W 2.33 | T 2.37 | Y 2.29 | S 1.86 | L 2.49 | H 2.66 | R 2.32 | P 2.74 | G 1.74 | A 2.25
G23: K 2.53 | H 2.18 | C 1.67 | I 1.51 | F 1.61 | L 2.56 | M 1.91 | Q 2.45 | E 2.25 | S 2.49 | Y 2.35 | A 2.29 | W 2.02 | P 2.69 | R 2.24 | V 1.9 | D 2.77 | T 2.5 | N 2.36
V7: R 3.95 | Y 3.78 | M 3.7 | P 4.46 | L 3.64 | I 2.53 | Q 3.78 | T 3.23 | W 3.67 | N 3.28 | K 3.6 | S 3.76
F20: S 2.96 | D 2.54 | R 2.32 | V 2.85 | N 2.56 | C 2.95 | E 2.52 | H 1.91 | K 2.46 | I 2.27 | P 2.75 | T 2.5 | G 2.59 | A 2.2 | M 2.49 | L 2.96 | W 1.9 | Q 2.42 | Y 2.6
D24: W 2.32 | T 1.72 | N 2.88 | S 2.01 | A 2.23 | K 2.97 | Q 2.06 | C 2.29 | Y 1.83 | G 2.08 | I 1.53 | H 1.66 | E 3.01 | P 2.1 | M 1.49 | L 2.04 | R 2.04 | V 2.73 | F 1.83
E16: G 2.53 | F 1.82 | W 1.79 | Y 1.68 | T 2.18 | R 2.32 | I 2.03 | D 1.98 | S 2.1 | C 1.93 | A 3.2 | K 2.15 | V 2.34 | L 2.26 | H 2.25 | N 1.75 | P 2.55 | Q 2.18 | M 1.57
A8: T 1.88 | S 1.82 | D 1.3 | K 2.31 | F 2.02 | I 2.77 | H 2.58 | L 2.15 | V 1.59 | W 2.26 | C 1.96 | M 2.74 | P 2.27 | E 1.98 | Q 1.66 | N 2.23 | Y 2.19 | G 2.29
F19: A 2.52 | I 1.87 | Q 2.46 | M 3.14 | C 2.08 | G 2.8 | P 2.63 | H 2.39 | Y 2.57 | N 2.52 | E 2.61 | W 2.04 | D 2.48 | L 2.61 | R 2.4 | T 2.81 | K 2.08 | V 2.11 | S 2.25
D22: P 2.44 | K 1.52 | S 2.29 | Q 2 | A 1.94 | V 2.65 | N 2.25 | Y 2.16 | M 1.72 | H 2.54 | L 2.01 | I 1.64 | E 1.98 | G 2.34 | T 2.29 | W 2.02 | C 2.08
V11: M 2.06 | G 1.53 | A 1.96 | H 2.04 | Q 2.38 | I 2.08 | D 2.14 | C 2.02 | P 2.03 | R 2 | N 1.95 | F 1.99 | W 1.78 | E 1.99 | T 1.94 | L 2.02 | Y 1.74 | K 1.75 | S 2.34
R9: M 1.95 | Y 1.84 | S 2.2 | V 2.14 | A 2.41 | L 1.94 | Q 3.03 | N 1.38 | G 2.41 | H 1.89 | E 2.21 | I 1.84 | P 3.54 | T 1.83 | C 1.32 | F 1.56 | W 1.41 | K 1.95
P14: K 2.93 | E 2.45 | N 2.1 | C 2.02 | G 1.76 | Q 2.15 | I 2.33 | D 2.26 | R 2.51 | A 2.16 | W 1.34 | H 1.69 | L 1.84 | T 1.87 | M 2.17 | S 1.88 | Y 1.8 | V 2.22 | F 2

Variants of: B2
Test: as above
Conditions: c terminus: a fixed tail appended

Protein stability index, by site and new letter:
F1: G 4.46 | E 4.91 | D 5.24 | A 4.88 | C 4.85
